In article PMC6988089:

Experiments:
[1] = target: TAMRA-labeled benzylated H3K9 peptide; assay: fluorescence polarisation
[2] = target: TAMRA-labeled H3K9me3 peptide; assay: fluorescence polarisation

Row | Kd [1] | Kd [2] | Kd (H3K9me2 peptide) | Substance
1 | 18.5 µM |  |  | CBX1 chromodomain F50A (from UniProt P83916 20-73) (domain or fragment)
2 | 49 µM | > 1000 µM |  | CBX3-F44G mutant (from UniProt Q13185 1-183) (natural protein)
3 | 5.5 µM | 80 µM | > 300 µM | Y26F/F50G-CBX1 chromodomain (from UniProt P83916 22-73) (domain or fragment)
4 | > 1000 µM |  |  | wild-type CBX3 (from UniProt Q13185 1-183) (natural protein)
